The target of assay [1] is HtpG from Synechococcus elongatus PCC 7942 (Synechococcus elongatus PCC 7942). The experiment in a line: AUC; sedimentation velocity, 45,000 rpm, 20 °C, 4 µM seHtpG, 40 mM HEPES-KOH pH 7.5, 150 mM KCl, 1 mM β-mercaptoethanol, absorbance at 280 nm.
Assay [2] has the same target. The experiment in a line: SEC; Superdex 200 16/60, 40 mM HEPES-KOH pH 7.5, 150 mM KCl, 0.5 mM TCEP, 0.5 mL/min; peak at 65 mL, close to the 158 kDa IgG standard. (In general: In gel filtration, larger molecules generally elute earlier.)

The term stoichiometry N denotes the number of molecules, sites or subunits per partner or assembly.

For the substance “HtpG from Synechococcus elongatus PCC 7942 (natural protein)”, the stoichiometry N in assay [1] and in assay [2] was 2 each time.

Source of the values: PMC12452654.
